In PMC5286379:

How the values were obtained:
Assay in all cases: EMSA
Sox2 HMG (79-aa protein) = conditions: Sox2-Oct heterodimer on SoxOct DNA element CCATGGACATTGTAATGCAAAAGAAGCTG, n = 3-13, read off a plot
Oct6^151S POU domain = conditions: homodimer on MORE (OctOct) DNA element TCCTCATGAATATTCATGAGGA; n = 3-13; parent: est. 160; read off a plot
Oct4^151M POU domain = conditions: homodimer on MORE (OctOct) DNA element TCCTCATGAATATTCATGAGGA; n = 3-13; parent: est. 7; read off a plot

| other: cooperativity factor (Sox2 HMG (79-aa protein); parent: est. 4.5) | other: cooperativity factor (Oct6^151S POU domain) | other: cooperativity factor (Sox2 HMG (79-aa protein); parent: est. 12) | other: cooperativity factor (Oct4^151M POU domain) | Substance |
| --- | --- | --- | --- | --- |
| 2.5 | 4 | – | – | Oct6 POU domain M151S |
| – | – | 29 | 140 | Oct4 POU domain S151M |
